Results from patent US11319374B2, “Inhibitors of prototypic galectin dimerization and uses thereof” (INSTITUT NATIONAL DE LA RECHERCHE SCIENTIFIQUE, priority 2015, dated 2022).

Tested on: Jurkat T cells
Assay: Apoptosis/toxicity of peptide alone in Jurkat T cells, Annexin V/PI
Format: cell-based
Method: FIG. 8A: Flow cytometry histogram showing propidium iodide (PI) (FL3) labeling of Jurkat T cells without or with 200 μM of hGal-7(129-135). FIG. 8B: Histogram showing the average percentage of Annexin-V (AV) positive Jurkat T cells in the presence of increasing concentrations of […]. FIG. 8C: Flow cytometry histogram showing PI (FL3) labeling of Jurkat T cells without or with 200 μM of PACAP28-38 FIG. 8D: Histogram showing the average percentage of AV-positive Jurkat T cells in the presence of increasing concentrations of PACAP28-38. The percentage of cell death was obtained as described above. Error bars represent standard deviation. Significance was calculated with respect to AF samples. Results are representative of three independent experiments.
Apoptosis assays with Annexin V/PI staining. Apoptosis was measured by flow cytometry using FITC-labeled Annexin V (Biolegend®, San Diego, Calif., USA) and propidium iodide. Briefly, the corresponding dilutions of recombinant hGal-7 and hGal-7(129-135) peptides were pre-incubated for 1 h at 4° C. in serum-free RPMI 1640 medium. 2.5×10^5 Jurkat cells were then harvested in the same medium and incubated with their corresponding dilutions at 37° C. for 4 h. Cells were washed once in PBS and once in binding buffer (0.01 M HEPES, 0.14 M NaCl, 2.5 mM CaCl2, pH 7.4). Cells were then incubated for 15 min with Annexin V in the dark at room temperature. A total of 400 μL of binding buffer containing 0.25 μg/mL propidium iodide was added to the cells before analysis by flow cytometry.

## H-Leu-Asp-Ser-Val-Arg-Ile-Phe-NH2 (H-LDSVRIF-NH2; listed as Homo sapiens) [hGal-7(129-135), peptide corresponding to residues 129-135 of hGal-7]
PI labeling at 200 μM, Annexin V at increasing concentrations, FIGS. 8A to 8D
  toxicity in Jurkat T cells: do not induce toxicity in Jurkat T cells
Peptide alone, FIG. 8
  induction of apoptosis by peptide alone: did not induce apoptosis in Jurkat T cells
